Assay results: paper PMC11125477 (PLOS ONE, 2024)

Biological target: T1, MAMDC4 (UniProt Q63191 22-1216)
T1 construct: HEK293 cells also hold endogenous (human) MAMDC4, which the anti-MAMDC4 antibody may precipitate as well; also called Endotubin; AEGP; source: HEK293, transfected (overexpressed), in lysate
Test: co-IP; HEK293 cells overexpressing MAMDC4, control or 50% Wnt3a conditioned media for 6hrs; NP-40 lysis buffer; lysates precipitated with anti-MAMDC4 (hybridoma supernatant) or control IgG on Protein G Dynabeads overnight at 4°C; immunoblot; input 1/50th of lysate
Settings: partners not purified

T1 sequence (Q63191 22-1216): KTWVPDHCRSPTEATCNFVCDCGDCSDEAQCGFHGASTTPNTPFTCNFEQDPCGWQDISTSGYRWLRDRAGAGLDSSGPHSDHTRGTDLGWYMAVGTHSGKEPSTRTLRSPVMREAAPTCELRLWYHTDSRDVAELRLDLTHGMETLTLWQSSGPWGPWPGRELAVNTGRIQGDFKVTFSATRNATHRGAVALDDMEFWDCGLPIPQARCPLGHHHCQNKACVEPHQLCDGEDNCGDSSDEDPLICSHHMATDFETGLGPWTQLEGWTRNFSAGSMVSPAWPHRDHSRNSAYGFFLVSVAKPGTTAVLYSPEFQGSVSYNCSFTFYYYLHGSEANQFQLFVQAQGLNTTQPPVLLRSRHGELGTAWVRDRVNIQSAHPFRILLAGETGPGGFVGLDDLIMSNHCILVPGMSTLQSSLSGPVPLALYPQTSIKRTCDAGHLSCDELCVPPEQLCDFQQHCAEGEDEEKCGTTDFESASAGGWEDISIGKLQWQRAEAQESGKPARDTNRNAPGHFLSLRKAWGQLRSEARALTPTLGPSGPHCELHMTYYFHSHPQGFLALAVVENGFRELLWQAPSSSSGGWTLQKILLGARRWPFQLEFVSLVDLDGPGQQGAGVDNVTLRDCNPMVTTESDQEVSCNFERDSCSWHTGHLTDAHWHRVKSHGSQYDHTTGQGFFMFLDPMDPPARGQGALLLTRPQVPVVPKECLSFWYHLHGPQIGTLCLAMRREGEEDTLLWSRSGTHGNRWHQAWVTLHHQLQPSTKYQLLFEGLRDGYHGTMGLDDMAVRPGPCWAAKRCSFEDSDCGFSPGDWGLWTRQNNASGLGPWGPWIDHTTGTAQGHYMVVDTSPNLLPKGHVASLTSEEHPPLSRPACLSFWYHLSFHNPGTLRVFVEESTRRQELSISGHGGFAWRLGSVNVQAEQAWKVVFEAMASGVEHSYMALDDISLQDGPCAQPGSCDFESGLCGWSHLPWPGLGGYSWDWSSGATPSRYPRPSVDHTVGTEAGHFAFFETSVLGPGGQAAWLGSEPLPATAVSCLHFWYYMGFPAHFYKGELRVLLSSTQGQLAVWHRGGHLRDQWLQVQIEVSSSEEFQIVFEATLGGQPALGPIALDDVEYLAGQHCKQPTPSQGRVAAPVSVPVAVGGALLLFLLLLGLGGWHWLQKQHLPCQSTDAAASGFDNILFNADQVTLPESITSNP

Row | ratio of signal from immunoprecipitation relative to input | Binder
1 | ~1 ratio IP to input | LRP6 (receptor, human (endogenous in HEK293), UniProt O75581 20-1613, looked up, LRP6, endogenous in HEK293 cells, detected with rabbit anti-LRP6 (CST 2560); also called total LRP6; source: endogenous, HEK293 lysate) APLLLYANRRDLRLVDATNGKENATIVVGGLEDAAAVDFVFSHGLIYWSDVSEEAIKRTEFNKTESVQNVVVSGLLSPDGLACDWLGEKLYWTDSETNRIEVSNLDGSLRKVLFWQELDQPRAIALDPSSGFMYWTDWGEVPKIERAGMDGSSRFIIINSEIYWPNGLTLDYEEQKLYWADAKLNFIHKSNLDGTNRQAVVKGSLPHPFALTLFEDILYWTDWSTHSILACNKYTGEGLREIHSDIFSPMDIHAFSQQRQPNATNPCGIDNGGCSHLCLMSPVKPFYQCACPTGVKLLENGKTCKDGATELLLLARRTDLRRISLDTPDFTDIVLQLEDIRHAIAIDYDPVEGYIYWTDDEVRAIRRSFIDGSGSQFVVTAQIAHPDGIAVDWVARNLYWTDTGTDRIEVTRLNGTMRKILISEDLEEPRAIVLDPMVGYMYWTDWGEIPKIERAALDGSDRVVLVNTSLGWPNGLALDYDEGKIYWGDAKTDKIEVMNTDGTGRRVLVEDKIPHIFGFTLLGDYVYWTDWQRRSIERVHKRSAEREVIIDQLPDLMGLKATNVHRVIGSNPCAEENGGCSHLCLYRPQGLRCACPIGFELISDMKTCIVPEAFLLFSRRADIRRISLETNNNNVAIPLTGVKEASALDFDVTDNRIYWTDISLKTISRAFMNGSALEHVVEFGLDYPEGMAVDWLGKNLYWADTGTNRIEVSKLDGQHRQVLVWKDLDSPRALALDPAEGFMYWTEWGGKPKIDRAAMDGSERTTLVPNVGRANGLTIDYAKRRLYWTDLDTNLIESSNMLGLNREVIADDLPHPFGLTQYQDYIYWTDWSRRSIERANKTSGQNRTIIQGHLDYVMDILVFHSSRQSGWNECASSNGHCSHLCLAVPVGGFVCGCPAHYSLNADNRTCSAPTTFLLFSQKSAINRMVIDEQQSPDIILPIHSLRNVRAIDYDPLDKQLYWIDSRQNMIRKAQEDGSQGFTVVVSSVPSQNLEIQPYDLSIDIYSRYIYWTCEATNVINVTRLDGRSVGVVLKGEQDRPRAVVVNPEKGYMYFTNLQERSPKIERAALDGTEREVLFFSGLSKPIALALDSRLGKLFWADSDLRRIESSDLSGANRIVLEDSNILQPVGLTVFENWLYWIDKQQQMIEKIDMTGREGRTKVQARIAQLSDIHAVKELNLQEYRQHPCAQDNGGCSHICLVKGDGTTRCSCPMHLVLLQDELSCGEPPTCSPQQFTCFTGEIDCIPVAWRCDGFTECEDHSDELNCPVCSESQFQCASGQCIDGALRCNGDANCQDKSDEKNCEVLCLIDQFRCANGQCIGKHKKCDHNVDCSDKSDELDCYPTEEPAPQATNTVGSVIGVIVTIFVSGTVYFICQRMLCPRMKGDGETMTNDYVVHGPASVPLGYVPHPSSLSGSLPGMSRGKSMISSLSIMGGSSGPPYDRAHVTGASSSSSSSTKGTYFPAILNPPPSPATERSHYTMEFGYSSNSPSTHRSYSYRPYSYRHFAPPTTPCSTDVCDSDYAPSRRMTSVATAKGYTSDLNYDSEPVPPPPTPRSQYLSAEENYESCPPSPYTERSYSHHLYPPPPSPCTDSS
2 | ~1 ratio IP to input | phospho-LRP6 (Ser 1490) (receptor, human (endogenous in HEK293), UniProt O75581 20-1613, looked up, phosphoserine at 1490, LRP6 phosphorylated at Ser 1490, endogenous in HEK293 cells, detected with rabbit anti-phospho-LRP6 (Ser 1490) (CST 2568); also called p-LRP6; source: endogenous, HEK293 lysate) APLLLYANRRDLRLVDATNGKENATIVVGGLEDAAAVDFVFSHGLIYWSDVSEEAIKRTEFNKTESVQNVVVSGLLSPDGLACDWLGEKLYWTDSETNRIEVSNLDGSLRKVLFWQELDQPRAIALDPSSGFMYWTDWGEVPKIERAGMDGSSRFIIINSEIYWPNGLTLDYEEQKLYWADAKLNFIHKSNLDGTNRQAVVKGSLPHPFALTLFEDILYWTDWSTHSILACNKYTGEGLREIHSDIFSPMDIHAFSQQRQPNATNPCGIDNGGCSHLCLMSPVKPFYQCACPTGVKLLENGKTCKDGATELLLLARRTDLRRISLDTPDFTDIVLQLEDIRHAIAIDYDPVEGYIYWTDDEVRAIRRSFIDGSGSQFVVTAQIAHPDGIAVDWVARNLYWTDTGTDRIEVTRLNGTMRKILISEDLEEPRAIVLDPMVGYMYWTDWGEIPKIERAALDGSDRVVLVNTSLGWPNGLALDYDEGKIYWGDAKTDKIEVMNTDGTGRRVLVEDKIPHIFGFTLLGDYVYWTDWQRRSIERVHKRSAEREVIIDQLPDLMGLKATNVHRVIGSNPCAEENGGCSHLCLYRPQGLRCACPIGFELISDMKTCIVPEAFLLFSRRADIRRISLETNNNNVAIPLTGVKEASALDFDVTDNRIYWTDISLKTISRAFMNGSALEHVVEFGLDYPEGMAVDWLGKNLYWADTGTNRIEVSKLDGQHRQVLVWKDLDSPRALALDPAEGFMYWTEWGGKPKIDRAAMDGSERTTLVPNVGRANGLTIDYAKRRLYWTDLDTNLIESSNMLGLNREVIADDLPHPFGLTQYQDYIYWTDWSRRSIERANKTSGQNRTIIQGHLDYVMDILVFHSSRQSGWNECASSNGHCSHLCLAVPVGGFVCGCPAHYSLNADNRTCSAPTTFLLFSQKSAINRMVIDEQQSPDIILPIHSLRNVRAIDYDPLDKQLYWIDSRQNMIRKAQEDGSQGFTVVVSSVPSQNLEIQPYDLSIDIYSRYIYWTCEATNVINVTRLDGRSVGVVLKGEQDRPRAVVVNPEKGYMYFTNLQERSPKIERAALDGTEREVLFFSGLSKPIALALDSRLGKLFWADSDLRRIESSDLSGANRIVLEDSNILQPVGLTVFENWLYWIDKQQQMIEKIDMTGREGRTKVQARIAQLSDIHAVKELNLQEYRQHPCAQDNGGCSHICLVKGDGTTRCSCPMHLVLLQDELSCGEPPTCSPQQFTCFTGEIDCIPVAWRCDGFTECEDHSDELNCPVCSESQFQCASGQCIDGALRCNGDANCQDKSDEKNCEVLCLIDQFRCANGQCIGKHKKCDHNVDCSDKSDELDCYPTEEPAPQATNTVGSVIGVIVTIFVSGTVYFICQRMLCPRMKGDGETMTNDYVVHGPASVPLGYVPHPSSLSGSLPGMSRGKSMISSLSIMGGSSGPPYDRAHVTGASSSSSSSTKGTYFPAILNPPPSPATERSHYTMEFGYSSNSPSTHRSYSYRPYSYRHFAPPTTPCSTDVCDSDYAPSRRMTSVATAKGYTSDLNYDSEPVPPPPTPRSQYLSAEENYESCPPSPYTERSYSHHLYPPPPSPCTDSS
